Experimental findings from patent US20230190943A1, “ALGINIC ACID DERIVATIVE BONDED TO NONSTEROIDAL ANTI-INFLAMMATORY COMPOUND” (MOCHIDA PHARMACEUTICAL CO., LTD., priority 2018, published 2023) are described below.

A short description of the first series: Release test of free diclofenac from conjugates in 20 mM sodium phosphate buffer, 37°C (Example 11). Particulars: pH 5.3, 37°C, Day 1, 0.1% w/w conjugate, free diclofenac. It counts as physicochemical. How it is done: (§1) (set temperature of air conditioner). After confirming that no gel was formed, this solution was dispensed. Immediately after the dissolution, the amount of free diclofenac present in each solution was measured by LC-MS/MS as an initial state (day 0 of storage). Also, the other dispensed solutions were incubated at 37° C. for 1, 3, and 7 days, and then the amount of free diclofenac was measured. […] The MS conditions are as follows. • Ionization mode: ESI-negative • Ion source temperature: 300 degrees • Capillary voltage: -4000 V
Regarding “Diclofenac-(Serine Ethyl Ester)-Alginic Acid Derivative [Compound 19]”, the “Release Rate in Release Test at pH 5.3” value came out at 0.0%.
Take “Diclofenac-(Threonine Ethyl Ester)-Alginic Acid Derivative [Compound 24]”: the “Release Rate in Release Test at pH 5.3” value is given as 0.0%.
For the substance “Diclofenac-(Tyramine)-Alginic Acid Derivative [Compound 32]”, the “Release Rate in Release Test at pH 5.3” value is 0.0%.

Still in this series, the particulars now being: pH 5.3, 37°C, Day 3, 0.1% w/w conjugate, free diclofenac.
With “Diclofenac-(Serine Ethyl Ester)-Alginic Acid Derivative [Compound 19]”, the “Release Rate in Release Test at pH 5.3” value is 0.0%.
In the case of “Diclofenac-(Threonine Ethyl Ester)-Alginic Acid Derivative [Compound 24]”, the “Release Rate in Release Test at pH 5.3” value is listed as 0.0%.
In the case of “Diclofenac-(Tyramine)-Alginic Acid Derivative [Compound 32]”, the “Release Rate in Release Test at pH 5.3” value is 1.5%.

The same series, now with this note: pH 5.3, 37°C, Day 7, 0.1% w/w conjugate, free diclofenac.
Consider “Diclofenac-(Serine Ethyl Ester)-Alginic Acid Derivative [Compound 19]”, for which the “Release Rate in Release Test at pH 5.3” value is given as 0.0%.
Consider “Diclofenac-(Threonine Ethyl Ester)-Alginic Acid Derivative [Compound 24]”, for which the “Release Rate in Release Test at pH 5.3” value amounted to 0.0%.
Consider “Diclofenac-(Tyramine)-Alginic Acid Derivative [Compound 32]”, for which the “Release Rate in Release Test at pH 5.3” value came to 7.6%.

The same series, now with this note: pH 7.0, 37°C, Day 1, 0.1% w/w conjugate, free diclofenac.
“Diclofenac-(Serine Ethyl Ester)-Alginic Acid Derivative [Compound 19]”: the “Release Rate in Release Test at pH 7.0” value was 0.0%.
For the substance “Diclofenac-(Threonine Ethyl Ester)-Alginic Acid Derivative [Compound 24]”, the “Release Rate in Release Test at pH 7.0” value came out at 0.0%.
As to “Diclofenac-(Tyramine)-Alginic Acid Derivative [Compound 32]”, the “Release Rate in Release Test at pH 7.0” value came to 0.0%.

Still in this series, the particulars now being: pH 7.0, 37°C, Day 3, 0.1% w/w conjugate, free diclofenac.
“Diclofenac-(Serine Ethyl Ester)-Alginic Acid Derivative [Compound 19]”: the “Release Rate in Release Test at pH 7.0” value came to 0.8%.
Consider “Diclofenac-(Threonine Ethyl Ester)-Alginic Acid Derivative [Compound 24]”, for which the “Release Rate in Release Test at pH 7.0” value is reported as 1.4%.
For “Diclofenac-(Tyramine)-Alginic Acid Derivative [Compound 32]”, the “Release Rate in Release Test at pH 7.0” value is given as 5.7%.

Staying with this series, now noted: pH 7.0, 37°C, Day 7, 0.1% w/w conjugate, free diclofenac.
In the case of “Diclofenac-(Serine Ethyl Ester)-Alginic Acid Derivative [Compound 19]”, the “Release Rate in Release Test at pH 7.0” value came out at 12.3%.
In the case of “Diclofenac-(Threonine Ethyl Ester)-Alginic Acid Derivative [Compound 24]”, the “Release Rate in Release Test at pH 7.0” value stood at 5.4%.
For the substance “Diclofenac-(Tyramine)-Alginic Acid Derivative [Compound 32]”, the “Release Rate in Release Test at pH 7.0” value amounted to 15.2%.

A further series can be described thus: Release test of free diclofenac, felbinac, ketoprofen or naproxen in sodium phosphate buffer (Example 23). Type of series: physicochemical. Particulars: pH 5.3, day 1, free drug (diclofenac, felbinac, ketoprofen or naproxen). How it is done:
as §1
For “Diclofenac-(2-Amino-N-(2-Hydroxypropyl)Acetamide)-Alginic Acid Derivative [Compound 72b]”, the “Release Rate in Release Test at pH 5.3” value worked out at 0.0%.
Take “Diclofenac-(2-Amino-N-(3-Hydroxypropyl)Acetamide)-Alginic Acid Derivative [Compound 76a]”: the “Release Rate in Release Test at pH 5.3” value was 0.1%.
For the substance “Diclofenac-(2-Amino-N-(3-Hydroxypropyl)Acetamide)-Alginic Acid Derivative [Compound 76b]”, the “Release Rate in Release Test at pH 5.3” value is given as 0.3%.
Turning to “Diclofenac-(2-Amino-N-(6-Hydroxyhexyl)Acetamide)-Alginic Acid Derivative [Compound 68]”, the “Release Rate in Release Test at pH 5.3” value was determined as 0.0%.
The same measure, in the same setting: the value for “Diclofenac-(2-Aminoethoxyethanol)-Alginic Acid Derivative [Compound 14a]” was 0.1%; that for “Diclofenac-(2-Aminoethoxyethanol)-Alginic Acid Derivative [Compound 14b]” was 0.1%.
With “Felbinac-(2-Amino-N-(2-Hydroxyethyl)Acetamide)-Alginic Acid Derivative [Compound 84]”, the “Release Rate in Release Test at pH 5.3” value is recorded as 0.2%.

The series is the same for the next values; noted with them: pH 5.3, day 3, free drug (diclofenac, felbinac, ketoprofen or naproxen).
Consider “Diclofenac-(2-Amino-N-(2-Hydroxypropyl)Acetamide)-Alginic Acid Derivative [Compound 72b]”, for which the “Release Rate in Release Test at pH 5.3” value was 0.1%.
The same measure, in the same setting: the value for “Diclofenac-(2-Amino-N-(3-Hydroxypropyl)Acetamide)-Alginic Acid Derivative [Compound 76a]” was 0.2%; that for “Diclofenac-(2-Amino-N-(3-Hydroxypropyl)Acetamide)-Alginic Acid Derivative [Compound 76b]” was 0.5%; that for “Diclofenac-(2-Amino-N-(6-Hydroxyhexyl)Acetamide)-Alginic Acid Derivative [Compound 68]” was 0.2%.
On to “Diclofenac-(2-Aminoethoxyethanol)-Alginic Acid Derivative [Compound 14a]”, for which the “Release Rate in Release Test at pH 5.3” value was 0.2%.
With “Diclofenac-(2-Aminoethoxyethanol)-Alginic Acid Derivative [Compound 14b]”, the “Release Rate in Release Test at pH 5.3” value amounted to 0.2%.
Consider “Felbinac-(2-Amino-N-(2-Hydroxyethyl)Acetamide)-Alginic Acid Derivative [Compound 84]”, for which the “Release Rate in Release Test at pH 5.3” value worked out at 0.3%.

The same series, now with this note: pH 5.3, day 7, free drug (diclofenac, felbinac, ketoprofen or naproxen).
“Diclofenac-(2-Amino-N-(2-Hydroxypropyl)Acetamide)-Alginic Acid Derivative [Compound 72b]”: the “Release Rate in Release Test at pH 5.3” value worked out at 0.2%.
Consider “Diclofenac-(2-Amino-N-(3-Hydroxypropyl)Acetamide)-Alginic Acid Derivative [Compound 76a]”, for which the “Release Rate in Release Test at pH 5.3” value was 0.4%.
As for “Diclofenac-(2-Amino-N-(3-Hydroxypropyl)Acetamide)-Alginic Acid Derivative [Compound 76b]”, the “Release Rate in Release Test at pH 5.3” value was found to be 0.6%.
With “Diclofenac-(2-Amino-N-(6-Hydroxyhexyl)Acetamide)-Alginic Acid Derivative [Compound 68]”, the “Release Rate in Release Test at pH 5.3” value stood at 0.3%.
Regarding “Diclofenac-(2-Aminoethoxyethanol)-Alginic Acid Derivative [Compound 14a]”, the “Release Rate in Release Test at pH 5.3” value amounted to 0.4%.
The same measure, in the same setting: to “Diclofenac-(2-Aminoethoxyethanol)-Alginic Acid Derivative [Compound 14b]” belongs 0.5%.
Consider “Felbinac-(2-Amino-N-(2-Hydroxyethyl)Acetamide)-Alginic Acid Derivative [Compound 84]”, for which the “Release Rate in Release Test at pH 5.3” value was determined as 0.5%.

Staying with this series, now noted: pH 7.0, day 1, free drug (diclofenac, felbinac, ketoprofen or naproxen).
Regarding “Diclofenac-(2-Amino-N-(2-Hydroxypropyl)Acetamide)-Alginic Acid Derivative [Compound 72b]”, the “Release Rate in Release Test at pH 7.0” value was 0.4%.
In the case of “Diclofenac-(2-Amino-N-(3-Hydroxypropyl)Acetamide)-Alginic Acid Derivative [Compound 76a]”, the “Release Rate in Release Test at pH 7.0” value is listed as 0.5%.
For “Diclofenac-(2-Amino-N-(3-Hydroxypropyl)Acetamide)-Alginic Acid Derivative [Compound 76b]”, the “Release Rate in Release Test at pH 7.0” value stood at 0.4%.
Turning to “Diclofenac-(2-Amino-N-(6-Hydroxyhexyl)Acetamide)-Alginic Acid Derivative [Compound 68]”, the “Release Rate in Release Test at pH 7.0” value is 0.3%.
On the same count and under the same terms, the value for “Diclofenac-(2-Aminoethoxyethanol)-Alginic Acid Derivative [Compound 14a]” was 0.6%; that for “Felbinac-(2-Amino-N-(2-Hydroxyethyl)Acetamide)-Alginic Acid Derivative [Compound 84]” was 0.9%.

The series is the same for the next values; noted with them: pH 7.0, day 3, free drug (diclofenac, felbinac, ketoprofen or naproxen).
Take “Diclofenac-(2-Amino-N-(2-Hydroxypropyl)Acetamide)-Alginic Acid Derivative [Compound 72b]”: the “Release Rate in Release Test at pH 7.0” value is 1.5%.
On to “Diclofenac-(2-Amino-N-(3-Hydroxypropyl)Acetamide)-Alginic Acid Derivative [Compound 76a]”, for which the “Release Rate in Release Test at pH 7.0” value was 1.3%.
On to “Diclofenac-(2-Amino-N-(3-Hydroxypropyl)Acetamide)-Alginic Acid Derivative [Compound 76b]”, for which the “Release Rate in Release Test at pH 7.0” value was determined as 1.4%.
On the same count and under the same terms, the value for “Diclofenac-(2-Amino-N-(6-Hydroxyhexyl)Acetamide)-Alginic Acid Derivative [Compound 68]” was 0.9%; that for “Diclofenac-(2-Aminoethoxyethanol)-Alginic Acid Derivative [Compound 14a]” was 1.9%; that for “Felbinac-(2-Amino-N-(2-Hydroxyethyl)Acetamide)-Alginic Acid Derivative [Compound 84]” was 3.3%.

Still in this series, the particulars now being: pH 7.0, day 7, free drug (diclofenac, felbinac, ketoprofen or naproxen).
Consider “Diclofenac-(2-Amino-N-(2-Hydroxypropyl)Acetamide)-Alginic Acid Derivative [Compound 72b]”, for which the “Release Rate in Release Test at pH 7.0” value was determined as 3.7%.
As to “Diclofenac-(2-Amino-N-(3-Hydroxypropyl)Acetamide)-Alginic Acid Derivative [Compound 76a]”, the “Release Rate in Release Test at pH 7.0” value came out at 3.5%.
For the substance “Diclofenac-(2-Amino-N-(3-Hydroxypropyl)Acetamide)-Alginic Acid Derivative [Compound 76b]”, the “Release Rate in Release Test at pH 7.0” value is 3.6%.
On to “Diclofenac-(2-Amino-N-(6-Hydroxyhexyl)Acetamide)-Alginic Acid Derivative [Compound 68]”, for which the “Release Rate in Release Test at pH 7.0” value worked out at 2.1%.
Still for that read-out and setting: to “Diclofenac-(2-Aminoethoxyethanol)-Alginic Acid Derivative [Compound 14a]” belongs 4.2%.
For “Felbinac-(2-Amino-N-(2-Hydroxyethyl)Acetamide)-Alginic Acid Derivative [Compound 84]”, the “Release Rate in Release Test at pH 7.0” value came out at 7.3%.
